Source: patent US20100297726A1 (AMANO ENZYME, published 2010)

T1: mature transglutaminase (Streptomyces mobaraensis strain No. 140226) (Streptomyces mobaraensis, UniProt P81453 77-407)
T1 construct: Natural enzyme from the culture solution; also called mature TGase; M-TGase
T1 sequence: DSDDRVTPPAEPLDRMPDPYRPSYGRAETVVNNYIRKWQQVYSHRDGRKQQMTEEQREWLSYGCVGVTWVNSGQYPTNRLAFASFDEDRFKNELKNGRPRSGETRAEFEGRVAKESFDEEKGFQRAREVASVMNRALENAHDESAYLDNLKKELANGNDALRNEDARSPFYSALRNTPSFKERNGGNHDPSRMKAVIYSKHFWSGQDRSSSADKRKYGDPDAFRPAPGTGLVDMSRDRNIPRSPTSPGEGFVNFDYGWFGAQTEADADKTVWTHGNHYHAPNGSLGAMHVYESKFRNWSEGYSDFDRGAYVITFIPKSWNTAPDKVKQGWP

B1: pro-sequence peptide of transglutaminase (2) DNGAGEETKSYAETYRLTADDVANINALNESAPAAS (peptide)
peptide: DNGAGEETKSYAETYRLTADDVANINALNESAPAAS
notes: Recovered from P-TGase of Streptomyces mobaraensis strain No. 140226 after SDS treatment and gel filtration
B2: pro-sequence peptide of transglutaminase (3) DNGAGEETKSYAETYRLTADDVANINALNESAPAASS (peptide)
peptide: DNGAGEETKSYAETYRLTADDVANINALNESAPAASS
notes: as for B1
B3: pro-sequence peptide of transglutaminase (1) DNGAGEETKSYAETYRLTADDVANINALNESAPAA (peptide)
peptide: DNGAGEETKSYAETYRLTADDVANINALNESAPAA
notes: Recovered from P-TGase of Streptomyces mobaraensis strain No. 140226 after SDS treatment and gel filtration; One of three peptide species found in the P-TGase preparation

Each binder was assayed against T1, mature transglutaminase (Streptomyces …) (assay: gel filtration (Sephacryl S-100), elution patterns with and without SDS).
Procedure: On the other hand, ammonium sulfate was added to the recovered supernatant until the concentration of saturated solution was achieved, and precipitates were recovered. The recovered precipitates were dissolved in 20 mM phosphate buffer solution (KPB; pH 7.2), and then dialyzed against the same buffer solution. Next, ammonium sulfate was added to the dialysate so that 1.7 M ammonium sulfate was obtained, which was subjected to Phenyl-Sepharose 6 Fast Flow equilibrated with 20 mM phosphate buffer solution (KPB; pH 7.2) containing 1.7 M ammonium sulfate, washed with 1.7 M ammonium sulfate, and eluted with 1.0 M ammonium sulfate. Thus, the target stabilized TGase (P-TGase) was eluted in the eluted fraction. The specific activity of the thus obtained P-TGase (u/Abs 280 nm) was 7.9. The elution patterns of gel filtration (Sephacryl S-100) was compared between the case in which SDS (sodium dodecyl sulfate) was added and the case in which SDS was not added.

Binding result, binds:
B1
B2
B3
